Experimental data reported in article PMC7840601.

Columns and labels:
[1] = molecular target: human C3b (CompTech) (human); test: SPR; 300 RU human C3b amine-coupled on a CM5 chip; FH1-4 WT or variant injected in duplicate at up to 40 uM; Biacore X100, 25 C, 30 ul/min, 10 mM HEPES-buffered saline, 3 mM EDTA, 0.05% surfactant P20; steady-state affinity model
[2] = molecular target: human C3b (CompTech) (human)

Substance | KD as a ratio of the KD of WT FH1-4 [1] [x WT] | cofactor activity for FI-mediated cleavage of C3b on sheep erythrocytes, IC50 as a multiple of WT FH1-4 [2] [x WT] | decay acceleration of the C3 convertase (C3bBb) on sheep erythrocytes, IC50 as a multiple of WT FH1-4 [2] [x WT]
FH1-4 D130N (from UniProt P08603 19-263) (domain or fragment) | 1.44 |  | 
FH1-4 G69E (from UniProt P08603 19-263) (domain or fragment) | 1.2 |  | 
FH1-4 Q81P (from UniProt P08603 19-263) (domain or fragment) |  | 11 | 25.1

Now from value to substance:

KD as a ratio of the KD of WT FH1-4 [1] [x WT] | cofactor activity for FI-mediated cleavage of C3b on sheep erythrocytes, IC50 as a multiple of WT FH1-4 [2] [x WT] | decay acceleration of the C3 convertase (C3bBb) on sheep erythrocytes, IC50 as a multiple of WT FH1-4 [2] [x WT] | Substance
1.2 |  |  | FH1-4 S159N (from UniProt P08603 19-263) (domain or fragment)
0.97 |  |  | FH1-4 A161S (from UniProt P08603 19-263) (domain or fragment)
1.23 |  |  | FH1-4 M162V (from UniProt P08603 19-263) (domain or fragment)
